In patent US20240400685A1:

Legend:
[1] = target: human CD20 (human) (UniProt P11836); assay: cell-based or functional assay
[2] = target: human CD3 epsilon (human) (UniProt P07766); assay: cell-based or functional assay
human CD3 epsilon (human), sequence (P07766 23-207): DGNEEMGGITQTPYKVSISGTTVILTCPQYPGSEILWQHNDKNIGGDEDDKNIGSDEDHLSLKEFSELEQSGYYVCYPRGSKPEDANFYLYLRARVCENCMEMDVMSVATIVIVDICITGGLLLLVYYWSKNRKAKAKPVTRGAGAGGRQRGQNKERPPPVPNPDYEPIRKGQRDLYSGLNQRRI

human CD20 (human), sequence (P11836 whole entry): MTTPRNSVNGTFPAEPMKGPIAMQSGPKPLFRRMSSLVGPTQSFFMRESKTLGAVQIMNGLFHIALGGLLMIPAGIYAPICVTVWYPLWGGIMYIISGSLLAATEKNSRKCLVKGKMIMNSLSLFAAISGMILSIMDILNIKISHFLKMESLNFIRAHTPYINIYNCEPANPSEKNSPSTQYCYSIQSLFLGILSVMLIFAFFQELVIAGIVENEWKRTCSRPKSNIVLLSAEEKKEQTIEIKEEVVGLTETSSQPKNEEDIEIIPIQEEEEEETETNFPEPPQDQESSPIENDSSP

- biological activity, T-cell activation assay [1]: 40%
- biological activity, T-cell activation assay [2]: 40%
Substance: epcoritamab LMWS fraction (Fc+Fab fragment)
